Test results published in patent publication US12358960B2, “Selective targeting of ubiquitin- and ubiquitin-like E1-activating enzymes by structurally-stabilized peptides” (Dana-Farber Cancer Institute, Inc., priority 2019, dated 2025).
Entries after “also recorded” stand apart in the source; their conditions may differ. Bridge positions count the residues as written; N and C are the ends. Square brackets hold non-standard residues; d marks the D form. Ends that are not written are not given here. * marks the point of attachment. Biotin = O=C1N[C@H]2[C@H](CS[C@H]2CCCCC(=O)*)N1; R8 = C=CCCCCCC[C@@](C)(N)C(=O)O; S5 = C=CCCC[C@](C)(N)C(=O)O; Nle = CCCC[C@H](N)C(=O)O; Dab = NCC[C@H](N)C(=O)O; Acryloyl = C=CC(=O)*

What was measured:
[1] = Circular dichroism, α-helicity; format: physicochemical; details: in solution
Procedure: Assays to Determine α-Helicity: Compounds are dissolved in an aqueous solution (e.g., 5 mM potassium phosphate solution at pH 7, or distilled H2O, to concentrations of 25-50 μM). Circular dichroism (CD) spectra are obtained on a spectropolarimeter (e.g., Jasco J-710, Aviv) using standard measurement parameters (e.g., temperature, 20° C.; wavelength, 190-260 nm; step resolution, 0.5 nm; speed, 20 nm/sec; accumulations, 10; response, 1 sec; bandwidth, 1 nm; path length, 0.1 cm). The α-helical content of each peptide is calculated by dividing the mean residue ellipticity by the reported value for a model helical decapeptide (Yang et al., Methods Enzymol. 130:208 (1986)).
Circular Dichroism: Acetylated peptides were dissolved in 10% (vol/vol) acetonitrile in water for circular dichroism analyses, performed on an Aviv Biomedical spectrophotometer, as reported (see Bird et. al., Methods in Enzymol., 446:369-386 (2008)).

[2] = molecular target: T1, Human E1 activating enzyme UBA1 (Homo sapiens, UniProt P22314); assay: In vitro enzyme inhibition assay: E1-mediated ubiquitin thioester transfer to E2 (band shift, silver stain); format: biochemical; details: for inhibition of E1-mediated thioester transfer to E2, dose response: range of peptide concentrations; for inhibition of E1-mediated thioester transfer to E2 by warhead-bearing stapled peptides: Example 8
T1 sequence (P22314 1-1058): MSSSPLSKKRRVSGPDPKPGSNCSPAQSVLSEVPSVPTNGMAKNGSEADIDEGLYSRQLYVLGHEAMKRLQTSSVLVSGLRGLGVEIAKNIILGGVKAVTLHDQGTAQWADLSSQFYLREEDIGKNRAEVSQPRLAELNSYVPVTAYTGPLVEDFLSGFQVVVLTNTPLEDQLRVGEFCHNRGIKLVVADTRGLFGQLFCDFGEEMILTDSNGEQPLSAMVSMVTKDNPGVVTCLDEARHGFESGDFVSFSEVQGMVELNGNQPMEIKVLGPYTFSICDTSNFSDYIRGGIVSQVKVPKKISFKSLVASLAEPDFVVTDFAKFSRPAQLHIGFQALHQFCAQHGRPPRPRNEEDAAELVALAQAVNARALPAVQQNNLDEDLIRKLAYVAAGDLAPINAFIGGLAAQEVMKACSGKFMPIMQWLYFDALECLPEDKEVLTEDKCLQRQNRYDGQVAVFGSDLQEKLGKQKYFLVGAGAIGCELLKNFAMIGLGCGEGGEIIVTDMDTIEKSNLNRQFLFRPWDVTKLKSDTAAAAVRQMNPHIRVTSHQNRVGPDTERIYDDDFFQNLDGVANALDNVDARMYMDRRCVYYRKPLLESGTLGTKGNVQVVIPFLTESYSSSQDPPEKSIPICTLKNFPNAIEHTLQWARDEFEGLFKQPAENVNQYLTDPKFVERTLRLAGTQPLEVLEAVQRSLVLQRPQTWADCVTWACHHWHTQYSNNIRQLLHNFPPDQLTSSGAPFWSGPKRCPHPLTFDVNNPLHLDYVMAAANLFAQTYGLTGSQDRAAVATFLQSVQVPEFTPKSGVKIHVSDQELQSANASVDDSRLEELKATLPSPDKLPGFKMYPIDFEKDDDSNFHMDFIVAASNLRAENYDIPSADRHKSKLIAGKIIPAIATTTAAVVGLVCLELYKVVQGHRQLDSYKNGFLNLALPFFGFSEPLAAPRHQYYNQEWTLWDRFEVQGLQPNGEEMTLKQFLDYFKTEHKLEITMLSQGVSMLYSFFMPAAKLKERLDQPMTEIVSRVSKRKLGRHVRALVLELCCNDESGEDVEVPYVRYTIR
Procedure: In vitro Enzyme Inhibition Assays: To assess an E2 hA peptide's inhibition of an E1 enzyme, an in vitro enzyme inhibition assay can be used, for example. The in vitro enzyme inhibition assay measures an E2 hA peptide's ability to inhibit conjugation of ubiquitin to E2 by E1. Briefly, recombinant E1 (e.g., UBA1), recombinant E2 (e.g., UBE2A), ubiquitin, and Mg-ATP are combined in the presence of an E2 hA peptide or vehicle control (e.g., 1% DMSO) for a period of time (e.g., 30 minutes) at room temperature in a buffer containing, e.g., 50 mM NaCl, 50 mM HEPES pH 7.5. Control reaction includes no E1. Reactions are quenched by addition of SDS-containing loading dye and samples are resolved on a gel (e.g., a 4-12% Bis-Tris protein gel) under nonreducing conditions. Proteins on the gel are visualized via, e.g., silver stain. Conjugation of ubiquitin to E2 by E1 is monitored by conversion of free E2 (˜17 kDa) to E2˜ubiquitin conjugate (˜26 kDa).
Control reaction included no E1 enzyme. Reactions were quenched by addition of SDS-containing loading dye and samples were resolved on a 4-12% Bis-Tris protein gel under nonreducing conditions. Proteins were visualized via silver stain. Conjugation of ubiquitin to E2 by E1 was monitored by conversion of free E2 (17 kDa) to E2˜ubiquitin conjugate (26 kDa).
The ability of the peptides to inhibit E1-mediated thioester transfer to E2 was evaluated. Human E1 activating enzyme UBA1 (10 nM), UbcH5b E2 enzyme (150 nM), ubiquitin (1 μM), and Mg-ATP (20 μM) were combined in the presence of stapled peptide at a range of concentrations or vehicle control (1% DMSO) for 45 minutes at room temperature in buffer containing 50 mM NaCl, 50 mM HEPES, 1 mM TCEP pH 7.5. Reactions were quenched by addition of SDS-containing loading dye and samples were resolved on a 4-12% Bis-Tris protein gel under nonreducing conditions. Proteins were visualized via silver stain. Conjugation of ubiquitin to E2 by E1 was monitored by conversion of free E2 (17 kDa) to E2˜ubiquitin conjugate (26 kDa). Inhibition percentage was calculated from densitometry of silver stain images.
Streptavidin-biotin pull-down assays: For recombinant protein pull-downs, 10 pmol recombinant human UBA1 was incubated with 5 nmol C-terminally biotinylated SAH-UBE2A or DMSO vehicle control in a total volume of 1 mL binding buffer (50 mM NaCl, 20 mM HEPES, pH 7.4, 5 mM DTT) for 1.5 hours at 4° C. 30 μL of pre-equilibrated streptavidin agarose beads were then added and incubated for an additional 1.5 hours at 4° C. The beads were pelleted by centrifugation and washed three times with NP-40 buffer (20 mM HEPES, pH 7.4, 50 mM NaCl, 5 mM DTT, 0.5% [v/v] NP-40) before eluting the protein sample from the beads by heating at 70° C. for 10 min in 3×SDS loading buffer. Samples were subjected to electrophoresis and silver staining (Pierce 24612). For pull-down from cellular lysates, 0.75 mg HeLa cell lysate was incubated with 5 nmol C-terminally biotinylated SAH-UBE2A or DMSO vehicle control in a total volume of 1 mL binding buffer (50 mM NaCl, 20 mM HEPES, pH 7.4, 5 mM DTT) containing protease-phosphatase inhibitor cocktail for 2 hours at 4° C. 30 μL of pre-equilibrated streptavidin agarose beads (ThermoFisher 20357) were then added and incubated for an additional 1.5 hours at 4° C. The beads were pelleted by centrifugation and washed three times with NP-40 buffer (20 mM HEPES, pH 7.4, 50 mM NaCl, 5 mM DTT, 0.5% [v/v] NP-40) before eluting the protein sample from the beads by heating at 70° C. for 10 min in 3×SDS loading buffer. Proteins were separated by SDS-PAGE gel electrophoresis and detected by western blot against UBE1 (Abcam ab34711). In vitro Enzyme Inhibition Assays: Recombinant human E1 activating enzyme UBA1 (10 nM), E2 enzyme (150 nM), ubiquitin (1 μM), and Mg-ATP (20 μM) are combined in the presence of peptide or vehicle control (1% DMSO) for 45 minutes at room temperature in buffer containing 50 mM NaCl, 50 mM HEPES pH 7.5. Control reaction includes no E1 enzyme. […]

Substance | helicity / helical content [1] [%] | inhibition of E1-mediated thioester transfer to E2 by warhead-bearing stapled peptides [2] | also measured
BPSSASRQLLRKQLKEIQZ ([Nle]PSSASRQLLRKQLKEIQK(Biotin)) [Ubc15-1, unmodified Ubc15 peptide, Z is biotinylated lysine] | 19 | – | –
BPSSAX1RQLLRKX2LKEIQ [SEQ ID NO:50] | 51 | – | inhibition of E1-mediated ubiquitin transfer to E2 (conversion of E2 to E2~ubiquitin) ([2]; 100 μM peptide, UbcH5b E2 enzyme, 45 minutes, staple scan): best in this panel at inhibiting E1-mediated ubiquitin transfer to E2; inhibition of E1-mediated thioester transfer to E2, dose response ([2]; UbcH5b E2 enzyme, 45 minutes, listed as SAH-Ubc15-11): inhibited E1-mediated thioester transfer to E2 in a dose-dependent manner; also recorded: dose-dependently inhibit E1-mediated thioester transfer to E2
BSTPARRRLBRDFKRLQ ([Nle]STPARRRL[Nle]RDFKRLQ-NH2; not fully specified (N-terminus)) [UBE2A, unmodified (unstapled) UBE2A peptide, B is norleucine] | 21 | – | inhibition of E1-mediated thioester transfer to E2 by mutant / additional stapled peptides ([2]; SAH-UBE2A-11 variants and controls, Examples 4, 7, 13): no inhibitory activity; also recorded: negligible inhibitory activity
BSTPX1RRRLBRX2FJRLQ ([Nle]STP[R8]RRRL[Nle]R[S5]F[Dab](Acryloyl)RLQ; staple 5-12; not fully specified (N-terminus, C-terminus); printed as BSTPX1RRRLBRX2FJRLQ) [SEQ ID NO:752, warhead-bearing stapled peptide, J acrylamide-bearing Dab at A11, staple A2 and A9] | – | inhibited E1-mediated thioester transfer to E2 | –
BSTPX1RRRLJRX2FKRLQ ([Nle]STP[R8]RRRL[Dab](Acryloyl)R[S5]FKRLQ; staple 5-12; not fully specified (N-terminus, C-terminus); printed as BSTPX1RRRLJRX2FKRLQ) [SEQ ID NO:680, warhead-bearing stapled peptide, J acrylamide-bearing Dab at A7, staple A2 and A9] | – | inhibited E1-mediated thioester transfer to E2 | –
BX1LKRIHJX2LNDLARD ([Nle][R8]LKRIH[Dab](Acryloyl)[S5]LNDLARD; staple 2-9; not fully specified (N-terminus, C-terminus); printed as BX1LKRIHJX2LNDLARD) [SEQ ID NO:691, warhead-bearing stapled peptide, J acrylamide-bearing Dab at A8, staple A2 and A9] | – | did not inhibit E1-mediated thioester transfer to E2 | –
BX1LKRIHKX2LJDLARD ([Nle][R8]LKRIHK[S5]L[Dab](Acryloyl)DLARD; staple 2-9; not fully specified (N-terminus, C-terminus); printed as BX1LKRIHKX2LJDLARD) [SEQ ID NO:727, warhead-bearing stapled peptide, J acrylamide-bearing Dab at A11, staple A2 and A9] | – | inhibited E1-mediated thioester transfer to E2 | –
BX1LKRIHKX2LNDLARD [SAH-UBE2D2-11] | – | – | inhibition of E1-mediated thioester transfer to E2, dose response ([2]; UbcH5b E2 enzyme, 45 minutes): inhibited E1-mediated thioester transfer to E2 in a dose-dependent manner; also recorded: dose-dependently inhibit E1-mediated thioester transfer to E2
X1ALKRIHX2ELJDLARD ([R8]ALKRIH[S5]EL[Dab](Acryloyl)DLARD; staple 1-8; not fully specified (N-terminus, C-terminus); printed as X1ALKRIHX2ELJDLARD) [SEQ ID NO:763, warhead-bearing stapled peptide, J acrylamide-bearing Dab at A11, staple A1 and A8] | – | did not inhibit E1-mediated thioester transfer to E2 | –
